Assay results as given in publication PMC2978346.

Target: His6-PfSSB (Plasmodium falciparum 3D7, UniProt Q8I415 77-284)
Experiment: EMSA

B1: 70-mer ssDNA oligonucleotide (ssDNA)
DNA: CTGCCACACACCACCAAAGCTAACTGACAGGAGAATCCAGATGGATCATTTAAAGCATTTGCAACAATTG
**Q.** Does B1 bind?
**A.** binds
